Assay results: patent publication US6673357B2, “Alkaloid glycoside for use as a medicament” (University of Southampton, priority 1996, dated 2004)

Tested on: ovalbumin-transfected EL4 (C57BL/6, H-2b thymoma) monoclonal murine cell line
Assay: Cytotoxicity assay: T lymphocyte-mediated 51Cr release with spleen cells from immunised mice
Assay type: cell-based
Conditions: means of triplicate determinations
Method: Cytotoxic activity mediated by T lymphocytes was measured using the ovalbumin-transfected EL4 (C57BL/6, H-2b thymoma) monoclonal murine cell line as a target. Untransfected EL4 cells were used as negative controls. Spleen cells (3×10^7) from normal or immunised mice primed 14 days earlier were incubated with 1.5×10^6 irradiated (200 Gy) 15-12 cells (gp160 transfectants) or 3T3 cells (which served as controls) for 5 days. Target cells (1×10^6) were labelled with 100 μCi ^51Cr. Target cells were washed three times in RPMI 1640 medium, diluted to 2×10^5 cells/ml, and 50μ (10^4) of target cells added to each microtitre well containing antigen or peptide (10 μM) and preincubated for 30 min. Effector cells were resuspended in complete mdium (CM) to yield a range of effector: target (E:T) ratios. Target cells (10^4) were then incubated at different E:T ratios in a total volume of 200 μl of 10% CM for an additional 4 h. Supernatants (100 μl) were collected and counted for ^51Cr release. Spontaneous release and maximal release values were determined by incubating target cells in 10% CM alone or 0.1% Triton X-100. Percent Cytotoxicity was calculated using the formula: […]
where ER is experimental release, SR is spontaneous release and […] release. The results shown are shown in Table 4 and represent the means of triplicate determinations.

B1: antigen only: antigen (ovalbumin, OVA) given without adjuvants (protein, UniProt P01012 2-386, looked up)
Ovalbumin: GSIGAASMEFCFDVFKELKVHHANENIFYCPIAIMSALAMVYLGAKDSTRTQINKVVRFDKLPGFGDSIEAQCGTSVNVHSSLRDILNQITKPNDVYSFSLASRLYAEERYPILPEYLQCVKELYRGGLEPINFQTAADQARELINSWVESQTNGIIRNVLQPSSVDSQTAMVLVNAIVFKGLWEKAFKDEDTQAMPFRVTEQESKPVQMMYQIGLFRVASMASEKMKILELPFASGTMSMLVLLPDEVSGLEQLESIINFEKLTEWTSSNVMEERKIKVYLPRMKMEEKYNLTSVLMAMGITDVFSSSANLSGISSAESLKISQAVHAAHAEINEAGREVVGSAEAGVDAASVSEEFRADHPFLFCIKHIATNAVLFFGRCVSP
% of Cytotoxic lysis (E:T ratio 25:1): 19%
% of Cytotoxic lysis (E:T ratio 50:1): 30%
% of Cytotoxic lysis (E:T ratio 100:1): 45%
